Experimental data from patent publication US20040213780A1 (GENERAL HOSPITAL, published 2004).

Target: T1, mutant full-length huntingtin with 75 glutamines (HttQ75) (UniProt P42858 1-3142)
T1 construct: domain: full-length; In the yeast two-hybrid assay expressed as prey fusion from vector pJG4-5 (hemagglutinin tag); also called mutant huntingtin
Test: yeast two-hybrid, huntingtin prey against TAFII130 bait
Description: All the constructs were verified by DNA sequencing for correct reading frame and orientation. All assays were performed in triplicates and protein expression verified by Western blotting using standard procedures. The ability of the LexA fusion to bind operator was confirmed by a repression assay. The two-hybrid screen assays were performed as described (D. Krainc et al., J. Biol. Chem. 273:26218, 1998).
Because NH₂-terminal fragments of mutant huntingtin can effectively induce cell death in both in vivo and in vitro models (L. Mangiarini, et al., Cell 87:493, 1996; J. K. Copper, et al., Hum. Mol. Genet. 7:783, 1998; D. Martindale, et al., Nature Genet. 18:150, 1998; S. H. Li and X. Y. Li, Hum. Mol. Genet. 7:777, 1998), we examined the interactions of Sp1 and TAFII130 with the 480-amino acid NH₂-terminal fragment of huntingtin. […] FIG. 1 illustrates that Huntingtin interacted with Sp1 and TAFII130 in vitro and in human HD brain tissue. FIG. 1A illustrates results of yeast two-hybrid experiments, as described above herein, performed with full-length (HttQ17 and HttQ75) or truncated huntingtin constructs (Htt480Q17 and Htt480Q68) as prey against bait plasmids containing full-length Sp1 or Sp1 lacking the DNA binding domain (Sp1AB, amino acids 83 through 621).

T1 sequence (P42858 other isoform, or with tags, fused parts or gaps mutant limits assumed): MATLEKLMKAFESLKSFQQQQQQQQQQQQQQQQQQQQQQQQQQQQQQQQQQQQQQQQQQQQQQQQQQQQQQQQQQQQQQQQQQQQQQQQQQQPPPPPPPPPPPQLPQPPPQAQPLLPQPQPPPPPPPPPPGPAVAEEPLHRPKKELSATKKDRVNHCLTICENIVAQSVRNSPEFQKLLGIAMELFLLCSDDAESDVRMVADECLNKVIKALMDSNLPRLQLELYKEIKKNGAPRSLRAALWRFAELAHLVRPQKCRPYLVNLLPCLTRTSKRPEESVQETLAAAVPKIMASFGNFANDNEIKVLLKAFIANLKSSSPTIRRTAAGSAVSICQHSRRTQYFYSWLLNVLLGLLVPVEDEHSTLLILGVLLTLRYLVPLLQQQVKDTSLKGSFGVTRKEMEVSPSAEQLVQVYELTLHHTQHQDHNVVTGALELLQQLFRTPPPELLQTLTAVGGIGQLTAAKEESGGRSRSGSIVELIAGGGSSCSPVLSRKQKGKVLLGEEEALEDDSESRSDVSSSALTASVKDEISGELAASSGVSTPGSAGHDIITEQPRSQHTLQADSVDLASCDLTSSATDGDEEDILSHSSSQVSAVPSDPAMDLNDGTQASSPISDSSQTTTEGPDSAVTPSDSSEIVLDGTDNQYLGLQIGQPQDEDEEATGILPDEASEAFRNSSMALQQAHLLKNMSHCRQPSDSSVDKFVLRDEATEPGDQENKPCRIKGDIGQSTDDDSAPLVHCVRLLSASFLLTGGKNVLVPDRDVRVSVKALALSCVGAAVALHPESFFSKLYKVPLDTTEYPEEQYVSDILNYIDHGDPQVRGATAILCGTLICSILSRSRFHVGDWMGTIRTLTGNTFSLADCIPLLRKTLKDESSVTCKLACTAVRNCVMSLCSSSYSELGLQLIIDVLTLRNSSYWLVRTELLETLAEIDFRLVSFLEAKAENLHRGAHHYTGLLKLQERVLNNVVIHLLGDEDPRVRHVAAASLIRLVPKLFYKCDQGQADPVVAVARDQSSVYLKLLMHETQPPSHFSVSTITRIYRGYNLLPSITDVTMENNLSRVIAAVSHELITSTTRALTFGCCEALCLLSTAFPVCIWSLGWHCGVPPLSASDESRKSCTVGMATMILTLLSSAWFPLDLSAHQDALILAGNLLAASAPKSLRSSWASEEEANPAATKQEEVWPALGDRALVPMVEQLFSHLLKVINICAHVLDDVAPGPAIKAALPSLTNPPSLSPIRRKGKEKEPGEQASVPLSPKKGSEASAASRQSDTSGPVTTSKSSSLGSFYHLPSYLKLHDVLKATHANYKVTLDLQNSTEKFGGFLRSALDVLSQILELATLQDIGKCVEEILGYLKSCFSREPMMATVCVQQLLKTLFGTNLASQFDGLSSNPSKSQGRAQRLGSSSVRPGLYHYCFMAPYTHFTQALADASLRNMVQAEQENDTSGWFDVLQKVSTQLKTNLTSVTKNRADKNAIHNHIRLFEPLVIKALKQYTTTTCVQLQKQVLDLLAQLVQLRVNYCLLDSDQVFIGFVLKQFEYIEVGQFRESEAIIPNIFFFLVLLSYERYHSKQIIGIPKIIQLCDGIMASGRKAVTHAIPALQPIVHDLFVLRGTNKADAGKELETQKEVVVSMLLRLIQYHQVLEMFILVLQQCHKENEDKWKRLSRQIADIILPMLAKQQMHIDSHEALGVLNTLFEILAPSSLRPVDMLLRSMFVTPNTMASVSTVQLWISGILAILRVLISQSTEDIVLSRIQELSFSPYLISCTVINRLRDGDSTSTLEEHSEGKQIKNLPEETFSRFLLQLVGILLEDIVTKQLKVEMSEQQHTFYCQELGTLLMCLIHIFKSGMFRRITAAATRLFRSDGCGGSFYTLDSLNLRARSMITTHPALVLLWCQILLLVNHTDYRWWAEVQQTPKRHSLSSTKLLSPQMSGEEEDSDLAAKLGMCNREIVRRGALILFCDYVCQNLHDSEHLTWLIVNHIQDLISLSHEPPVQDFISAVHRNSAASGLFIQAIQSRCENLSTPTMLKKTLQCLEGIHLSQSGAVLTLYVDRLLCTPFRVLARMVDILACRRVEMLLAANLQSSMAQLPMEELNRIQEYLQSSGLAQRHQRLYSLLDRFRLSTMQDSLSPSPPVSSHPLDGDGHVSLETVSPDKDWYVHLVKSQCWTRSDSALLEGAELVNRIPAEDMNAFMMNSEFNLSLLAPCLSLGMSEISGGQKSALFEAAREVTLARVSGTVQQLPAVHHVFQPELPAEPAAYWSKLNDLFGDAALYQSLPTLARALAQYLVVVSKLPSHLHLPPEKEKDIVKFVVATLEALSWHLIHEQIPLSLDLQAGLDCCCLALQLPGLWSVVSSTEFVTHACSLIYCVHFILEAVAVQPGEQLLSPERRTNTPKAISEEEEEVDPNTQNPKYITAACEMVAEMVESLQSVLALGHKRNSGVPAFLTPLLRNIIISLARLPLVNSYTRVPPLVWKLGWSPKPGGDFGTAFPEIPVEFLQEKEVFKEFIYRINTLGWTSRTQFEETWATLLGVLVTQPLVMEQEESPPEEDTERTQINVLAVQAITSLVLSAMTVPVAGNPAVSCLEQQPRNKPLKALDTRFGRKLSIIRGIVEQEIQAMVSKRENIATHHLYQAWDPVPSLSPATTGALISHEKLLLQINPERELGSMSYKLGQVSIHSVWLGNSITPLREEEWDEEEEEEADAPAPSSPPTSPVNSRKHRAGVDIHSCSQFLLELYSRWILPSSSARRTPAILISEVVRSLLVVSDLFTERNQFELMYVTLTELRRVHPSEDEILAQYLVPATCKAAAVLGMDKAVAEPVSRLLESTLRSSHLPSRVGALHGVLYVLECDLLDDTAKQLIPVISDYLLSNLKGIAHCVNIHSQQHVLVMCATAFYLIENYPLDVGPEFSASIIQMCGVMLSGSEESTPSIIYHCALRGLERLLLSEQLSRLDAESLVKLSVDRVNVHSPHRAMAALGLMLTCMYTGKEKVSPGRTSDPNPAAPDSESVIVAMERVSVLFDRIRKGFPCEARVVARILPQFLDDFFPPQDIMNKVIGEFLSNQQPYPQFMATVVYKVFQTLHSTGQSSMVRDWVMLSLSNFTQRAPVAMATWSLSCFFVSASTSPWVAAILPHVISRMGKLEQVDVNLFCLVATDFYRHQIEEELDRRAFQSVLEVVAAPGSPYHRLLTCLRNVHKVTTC

B1: TAFII130 (coactivator), full length (other, UniProt O00268 139-1085, looked up)
chain: PVPAAAAVAAGPEPAPAGPAKPAGPAALAARAGPGPGPGPGPGPGPGPGKPAGPGAAQTLNGSAALLNSHHAAAPAVSLVNNGPAALLPLPKPAAPGTVIQTPPFVGAAAPPAPAAPSPPAAPAPAAPAAAPPPPPPAPATLARPPGHPAGPPTAAPAVPPPAAAQNGGSAGAAPAPAPAAGGPAGVSGQPGPGAAAAAPAPGVKAESPKRVVQAAPPAAQTLAASGPASTAASMVIGPTMQGALPSPAAVPPPAPGTPTGLPKGAAGAVTQSLSRTPTATTSGIRATLTPTVLAPRLPQPPQNPTNIQNFQLPPGMVLVRSENGQLLMIPQQALAQMQAQAHAQPQTTMAPRPATPTSAPPVQISTVQAPGTPIIARQVTPTTIIKQVSQAQTTVQPSATLQRSPGVQPQLVLGGAAQTASLGTATAVQTGTPQRTVPGATTTSSAATETMENVKKCKNFLSTLIKLASSGKQSTETAANVKELVQNLLDGKIEAEDFTSRLYRELNSSPQPYLVPFLKRSLPALRQLTPDSAAFIQQSQQQPPPPTSQATTALTAVVLSSSVQRTAGKTAATVTSALQPPVLSLTQPTQVGVGKQGQPTPLVIQQPPKPGALIRPPQVTLTQTPMVALRQPHNRIMLTTPQQIQLNPLQPVPVVKPAVLPGTKALSAVSAQAAAAQKNKLKEPGGGSFRDDDDINDVASMAGVNLSEESARILATNSELVGTLTRSCKDETFLLQAPLQRRILEIGKKHGITELHPDVVSYVSHATQQRLQNLVEKISETAQQKNFSYKDDDRYEQASDVRAQLKFFEQLDQIEKQRKDEQEREILMRAAKSRSRQEDPEQLRLKQKAKEMQQQELAQMRQRDANLTALAAIGPRKKRKVDCPGPGSGAEGSGPGSVVPGSSGVGTPRQFTRQRITRVNLRDLIFCLENERETSHSLLLYKAFLK
notes: domain: full-length; in striatal neurons overexpressed
  binding result: binds
